The target of the assay is lamin B1 (mouse (endogenous in mouse embryonic fibroblasts)) (UniProt P14733). As to the kind of experiment: FRET or BRET.

The values below come from article PMC2615091.

UniProt P14733, sequence (P14733 whole entry): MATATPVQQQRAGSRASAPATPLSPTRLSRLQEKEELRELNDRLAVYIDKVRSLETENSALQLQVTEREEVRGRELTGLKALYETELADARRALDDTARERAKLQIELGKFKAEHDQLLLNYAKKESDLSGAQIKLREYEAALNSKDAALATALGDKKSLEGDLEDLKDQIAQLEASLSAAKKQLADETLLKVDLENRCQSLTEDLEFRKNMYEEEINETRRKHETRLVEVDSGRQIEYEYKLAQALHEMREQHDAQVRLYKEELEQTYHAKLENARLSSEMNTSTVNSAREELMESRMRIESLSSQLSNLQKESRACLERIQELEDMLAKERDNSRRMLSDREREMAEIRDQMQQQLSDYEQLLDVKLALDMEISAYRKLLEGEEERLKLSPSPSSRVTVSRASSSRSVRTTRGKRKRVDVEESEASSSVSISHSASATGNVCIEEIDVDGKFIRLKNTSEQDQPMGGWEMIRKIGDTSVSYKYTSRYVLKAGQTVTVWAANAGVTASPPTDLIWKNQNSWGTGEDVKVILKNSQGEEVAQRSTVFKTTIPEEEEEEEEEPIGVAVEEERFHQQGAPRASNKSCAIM

As for “Oct-1–EGFP (from UniProt P14859 1-743) (natural protein)”, the FRET efficiency is 4.63%.
